We go through two molecules from patent CN113621063A (JIANGSU QUANXIN BIOMEDICAL CO LTD; JIANGSU SAIFUSHI …, dated 2021).

Test [1] deals with T1, 人IFNAR1 (on HEK Blue IFNα/β cells, Daudi cells, human whole blood cells) (human, UniProt P17181 28-557).
T1 sequence (looked up): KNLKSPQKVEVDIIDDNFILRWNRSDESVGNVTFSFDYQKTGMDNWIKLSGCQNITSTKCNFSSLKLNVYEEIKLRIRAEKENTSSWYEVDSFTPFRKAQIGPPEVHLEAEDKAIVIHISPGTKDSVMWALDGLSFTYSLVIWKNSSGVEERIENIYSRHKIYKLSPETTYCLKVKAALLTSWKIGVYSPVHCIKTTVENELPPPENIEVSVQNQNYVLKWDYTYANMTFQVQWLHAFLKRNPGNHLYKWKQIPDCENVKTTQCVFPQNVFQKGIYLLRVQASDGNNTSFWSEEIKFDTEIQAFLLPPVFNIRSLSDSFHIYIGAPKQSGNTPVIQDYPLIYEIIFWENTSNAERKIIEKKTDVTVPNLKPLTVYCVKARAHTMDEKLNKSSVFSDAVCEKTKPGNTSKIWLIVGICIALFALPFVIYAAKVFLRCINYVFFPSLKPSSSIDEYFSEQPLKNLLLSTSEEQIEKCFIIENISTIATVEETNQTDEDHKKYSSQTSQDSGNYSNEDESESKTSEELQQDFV
The experiment in a line: cell-based or functional assay.

Test [2] deals with T2, 人干扰素α受体1(IFNAR1) (human, UniProt P17181 28-436).
T2 construct: Soluble antigen flowed over the captured antibody in the Biacore assay; also called 人IFNAR1; Human Interferon alpha/beta Receptor 1
T2 sequence: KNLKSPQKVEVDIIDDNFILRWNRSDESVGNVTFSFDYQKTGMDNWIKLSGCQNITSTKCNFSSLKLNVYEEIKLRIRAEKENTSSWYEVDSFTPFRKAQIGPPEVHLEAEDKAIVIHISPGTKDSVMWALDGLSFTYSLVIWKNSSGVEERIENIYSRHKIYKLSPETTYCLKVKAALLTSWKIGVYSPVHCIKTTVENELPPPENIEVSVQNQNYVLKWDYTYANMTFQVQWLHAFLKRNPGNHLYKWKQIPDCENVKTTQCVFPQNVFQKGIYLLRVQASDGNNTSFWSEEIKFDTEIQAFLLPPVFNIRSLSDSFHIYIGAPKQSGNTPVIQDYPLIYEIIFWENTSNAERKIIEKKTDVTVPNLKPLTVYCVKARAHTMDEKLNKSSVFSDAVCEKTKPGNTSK
The experiment in a line: SPR, Biacore T200, antibody captured on Protein A chip, antigen in flow, 25℃, 1:1 model, mean of three runs.

Broadly, the Kd is the equilibrium constant for the complex coming apart. Low values mean tighter binding, high ones weaker binding. The koff is a measure of how fast the partners let go of each other. Read a high koff as fast dissociation. A word on the kon: it is the second-order rate constant of association. Low values mean slower complex formation, high ones faster complex formation.

B1: Anifrolumab (antibody, V domains shown)
VH: EVQLVQSGAEVKKPGESLKISCKGSGYIFTNYWIAWVRQMPGKGLESMGIIYPGDSDIRYSPSFQGQVTISADKSITTAYLQWSSLKASDTAMYYCARHDIEGFDYWGRGTLVTVSS
VL: EIVLTQSPGTLSLSPGERATLSCRASQSVSSSFFAWYQQKPGQAPRLLIYGASSRATGIPDRLSGSGSGTDFTLTITRLEPEDFAVYYCQQYDSSAITFGQGTRLEIKR
On to B1, for which, in test [1], the 抑制干扰素诱导的Daudi细胞增殖活性的EC50 is 31.7 ng/mL, the “抑制干扰素诱导的HEK Blue IFNα/β细胞中1/2磷酸化活性的IC50” value came to 4.43 ng/mL and the 抑制干扰素诱导的全血释放CXCL10/IP10活性的IC50 came to 562 ng/mL.

B2: QX006N(HZD1203-45-IgG4.1) (antibody, V domains shown)
VH: EVQLVESGGGLVQPGGSLRLSCAASGFSLSSYYMTWVRQAPGKGLEWVSVINVYGGTYYASWAKGRFTISRDNSKNTLYLQMNSLRAEDTAVYYCAREDVAVYMAIDLWGQGTLVTVSS
VL: AIQMTQSPSSLSASVGDRVTITCQASQSISNQLSWYQQKPGKAPKLLIYDASSLASGVPSRFSGSRSGTKFTLTISSLQPEDFATYYCLGIYGDGADDGIAFGGGTKVEIK
notes: Humanized rabbit clone 1203#; The human IgG1 constant region was replaced by human IgG4 (plasmid pHZDCH-362VH-Hu6-IgG4.1) and the light chain plasmid is pHZDCK (kappa); also called 抗人干扰素α受体1单克隆抗体QX006N; 重组人源化抗IFNAR1单克隆抗体
Take B2: in test [1], the 抑制干扰素诱导的Daudi细胞增殖活性的EC50 came out at 29.9 ng/mL, the “抑制干扰素诱导的HEK Blue IFNα/β细胞中1/2磷酸化活性的IC50” value came out at 5.23 ng/mL and the 抑制干扰素诱导的全血释放CXCL10/IP10活性的IC50 was found to be 698 ng/mL. In test [2], this molecule yielded a Kd of 0.108 nM, an off-rate (koff) of 3.76e-05 s⁻¹ and an association rate constant (kon) of 347000 M⁻¹ s⁻¹.
